B1: mRAP-14c (peptide)
peptide: CEAKIEKHNHYQKQLEIAHEKLRHAESVGDGERVSRSREKHALLEGRTKELGYTVKKHGC
modifications: disulfide 1-60
B2: mRAP-8c (peptide)
peptide: CGKHFEAKIEKHNHYQKQLEIAHEKLRHAESVGDGERVSRSREKHALLEGRTKELGYTVKKHLQDGC
modifications: disulfide 1-67 (inferred)
B3: Heptide (peptide)
peptide: CGKHFEAKIEKHNHYQKQLEIAHEKLRHAESVGDAERVSRSREKHALLEGRTKELGYTVKKHLQDACG
modifications: disulfide 1-67 (inferred)

Positions of bridges follow the written chain, without caps; N, C: chain ends. No end group written: not given here.

recombinant human LRP1 ligand binding cluster II (amino acids 786-1165, C-terminal Fc) (human), sequence (Q07954 786-1165): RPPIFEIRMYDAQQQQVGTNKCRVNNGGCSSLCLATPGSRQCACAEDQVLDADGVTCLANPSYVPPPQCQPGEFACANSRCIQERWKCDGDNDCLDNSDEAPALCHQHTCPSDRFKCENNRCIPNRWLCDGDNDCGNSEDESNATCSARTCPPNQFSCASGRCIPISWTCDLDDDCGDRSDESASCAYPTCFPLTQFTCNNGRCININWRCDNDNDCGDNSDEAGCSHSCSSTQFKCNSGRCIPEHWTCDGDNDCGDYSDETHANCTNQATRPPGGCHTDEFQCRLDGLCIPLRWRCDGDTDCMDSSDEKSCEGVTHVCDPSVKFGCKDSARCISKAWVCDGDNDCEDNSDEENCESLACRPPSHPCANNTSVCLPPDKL

The assay concerns the target recombinant human LRP1 ligand binding cluster II (amino acids 786-1165, C-terminal Fc) (human). The assay can be described thus: solid-phase binding assay, receptor coated on plate.
Turning to B1, the Kd is 21 nM.

In the case of B2, the Kd lay within 4 to 6 nM.

For B3, the Kd turned out to be 3.5 nM.

For orientation: Kd means the concentration at which binding is half-saturated.

(Values after patent US20100210517A1.)
